{"source": "paper PMC9647470", "assay": "cycloheximide chase, endogenous CK2α, HEK293T", "conditions": "glycan lost; control: untreated", "data": [{"protein": "Casein kinase 2 alpha (CK2α): OSMI-4b (protein) parent chain: MSGPVPSRARVYTDVNTHRPREYWDYESHVVEWGNQDDYQLVRKLGRGKYSEVFEAINITNNEKVVVKILKPVKKKKIKREIKILENLRGGPNIITLADIVKDPVSRTPALVFEHVNNTDFKQLYQTLTDYDIRFYMYEILKALDYCHSMGIMHRDVKPHNVMIDHEHRKLRLIDWGLAEFYHPGQEYNVRVASRYFKGPELLVDYQMYDYSLDMWSLGCMLASMIFRKEPFFHGHDNYDQLVRIAKVLGTEDLYDYIDKYNIELDPRFNDILGRHSRKRWERFVHSENQHLVSPEALDFLDKLLRYDHQSRLTAREAMEHPYFYTVVKDQARMGSSSMPGGSTPVSSANMMSGISSVPTPSPLGPLAGSPVIAAANPLGMPVPAAAGAQQ", "values": [{"measurement": "degradation_or_half_life", "result": "no change"}]}]}
